# Assay results from the RNAGym collection of RNA variant scans (doi:10.1073/pnas.2313332121).
# B1: TPR t1 (parent)
# chain: GACCAAUCUGCCCUCAGAGCUCGAGAACAUCUUCGGAUGCAGAGGAGGCAGGCUUCGGUGGCGCGAUAGCGCCAACGUCCUCAACCUCCAAUGCAUCCCACCACAUGAUGAUGCCUGAAGAGCCUUGGUUUUUUG
# Variants of: B1
# Test: polymerase ribozyme fitness, log enrichment relative to wild type (log ratio); higher = more active; in vitro selection for triplet polymerase activity
# In short: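 PCR was used to build mutant libraries for each subunit of a heterodimeric triplet polymerase ribozyme, which were then transcribed. A single in vitro selection round, in triplicate, used a frozen incubation at −7 °C and recovered extended constructs by gel excision, streptavidin beads and RT-PCR. Fitness is the logarithm of genotype enrichment relative to wild-type enrichment, averaged over replicates with inverse-variance weights. The logarithm is base 2, and after Illumina sequencing only genotypes with ≥10 input reads and ≥1 read per output were kept.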
row,Variant,polymerase ribozyme fitness (log ratio)
1,C15U G23C A27U G45C G113C,-6.21
2,C3U G60A,-0.489
3,G48C U106A,0.0361
4,C8U A26G U54C C72U,-2.88
5,U7A G39U G69U,0.59
6,C12G U38C G69U C123A,1.35
7,A5C G17A G36U,-5.9
8,A68G U87G,-3.29
9,C49U U55G G63A,-1.98
10,U59G C76U G110U,-2.81
11,A2U A18U C124A U129G,-2.31
12,C85A U87G G120U,-0.802
13,C34U U59A C94U,-5.57
14,A37G G60A G127A,-2
15,U9G G61A C97U A100C A108G,-2.88
16,C76U G120C,0.737
17,A37G G61A C101A G127A,-1.91
18,A74U C123U,0.766
19,C94A A121C G122U U129A,-2.35
20,U116G U125A,-2.37
21,A43C G69A C94G,-7.62
22,G10U A103U,-4.38
23,G17C U21G G60C C79U G117A C124G,-5.63
24,G10C U87G C115U A119G G120C U131G,-1.59

row,Variant,polymerase ribozyme fitness (log ratio)
1,U67C G93U,-5.03
2,G47U G113U,-3.52
3,U92C G113A,-1.23
4,C89U G120U U125A,-0.262
5,C53U U55G C104U,0.237
6,G45C C101G G122A,-3.08
7,A41G C89G G128C,-3.51
8,U9C A105U U126A U132A,-2.93
9,C13A C79G C123A U129G,-3.45
10,A5U C11A G63A G93U,-2.91
11,A16C C64U U78C U87A G113U U116A,-7.76
12,G39U G52U A95U U109G,-6.38
13,C12U A46C C53G U106A,-0.663
14,U21C C70U A111C,-0.344
15,C8A A24U G25U A43G C70G A105C U112G,-7.66
16,A111U G120A,-3.85
17,G51U U112A U133C,-3.27
18,U38G G60A G110C U125A,-6.15
19,G52U G117C,-5.35
20,C34A U78A,-3.26
21,G63C G120U,-0.189
22,C12A C13A,-1.97
23,C70U A100U,-1.33
24,C8U G47A,-0.477

row,Variant,polymerase ribozyme fitness (log ratio)
1,G110U C115A U129C,-3.17
2,U32C U109G,-4.99
3,A6U G36A G71U,-0.709
4,C72G G120A,0.223
5,C4U C22G G48A C89A C124A,-3.16
6,C56A C80G,-2.82
7,G25A U96A,-5.41
8,A43G G71A A100U,-6.07
9,C88U A118G,0.0785
10,C8U G110A,0.177
11,C8G C73U A119U,0.0435
12,A5U U14A C53U U112A,0.0341
13,G113C U125A,-3.4
14,U81G U106G C124U,-5.53
15,G60A C82A C85A G120A,-0.412
16,C64G G120C,-4.47
17,A29G A121U,0.902
18,C88U C101U U106G C123A,-1.23
19,C22G U131A,-3.47
20,C13U G39A,-0.593
21,C12U G71U A90G A121G,1.71
22,G44A G60A A121C G122U,-1.92
23,U14A C40A A50G A74G G117U,-5.9
24,C11G G36A C70A,-1.16

row,Variant,polymerase ribozyme fitness (log ratio)
1,U81A U92A A118G,-5.64
2,C4U G10A C11G G69U,-0.117
3,A16U C40U C73G,-2.11
4,C56A C85G U92C,-4.74
5,A46C C79G,-2.93
6,C20U C73G G113U U130A U131C,-3.02
7,U9A C88U U92A,-2.44
8,U30A G52C,-5.66
9,C8G C53G A66U G120U,1.03
10,C80U C89A A119U,-2.89
11,C13U A27C A83U A84C C86A,-3.39
12,C15G A95U U116G,-2.63
13,G10U G17U C56U U109A G110C A118G C123A,-6.9
14,C72A C88U G93C,-0.854
15,C22G G36A G47C A119U C124G,-3.6
16,U38G G47C C62U C85A,-5.9
17,C8A U59A C82A U96A U112A,0.158
18,C28U G63A C88U,-3.69
19,G42C G69U A91U C102U C123U,-0.432
20,C12U A41G,0.638
21,A27G C34U C72U C86A U112A U133C,-2.87
22,C31U G44U,-5.33
23,G45A G128A,-2.84
24,C8G C40A C72A C98U G127C,-1.39

row,Variant,polymerase ribozyme fitness (log ratio)
1,C13G C73A U81G A121G,-1.23
2,A91C A95U C101A,-4.41
3,C20A U32A G35C G71U C115A,-5.14
4,A46U A74U A119G,0.444
5,U54C C82U A83C C115G G117A U129C,-4.19
6,C86G G120C,0.661
7,G63A A119G,-0.0262
8,C8A C104U G122A,0.724
9,C13G G57C C72U G113A,-2.96
10,G10A A41C C53G U133C,-1.29
11,G42U U54A G110U U133G,-4.37
12,C4A U7G A91U,-4.91
13,G113U C123U,-3.05
14,C4U G60A C86U G93A G117A U133A,-3.03
15,U7A C11G A37U G60U G93C,-0.83
16,C73A C88A G117U,-4.07
17,U9C C70U C102G,-6.28
18,C3G U78A U96A C123G U131C,-0.54
19,G52U U55G C82A C89G,-3.64
20,G63A U87G A95U,-1.19
21,C40U G61C U126G,-4.04
22,C4A G17A C53G C70G U106G G113A C115U U131A,-6.14
23,C8U A41C G58U C94G C104U U106A U112C,-3.18
24,C56A U78G,-0.153

row,Variant,polymerase ribozyme fitness (log ratio)
1,C20U C85U,-2.85
2,A46C G61A C80A,-3.96
3,C12A A18G C82A C101A U130G,-7.19
4,C11G C40A C72U C101U C104U G135U,-0.627
5,U54C,0.321
6,A2C U7C G113U G120C,-4.07
7,C73G G117C,-3.91
8,A90U G113A,-1.1
9,U78C C94U U112C,0.656
10,G51A C123G,-0.157
11,A2U G127C,-2.05
12,C80A C115U,-4.97
13,G47A U125A,-1.31
14,C8A C13G G61U A84U,-0.177
15,C88G U96G,-0.738
16,C53U C72G C104A A121C,-0.137
17,U55C G57A G69U C89U G110U U129A,-3.64
18,U9A C12U A27C C53U,-2.63
19,C12U C13G,-0.258
20,U9C A41C,-0.191
21,A27C A111U A118U G120A,-5.36
22,G61A A91C U96A,-1.49
23,C13U A18U A43C U59C G71U A105U,-4.76
24,C11A G57U G93U,-3.77

row,Variant,polymerase ribozyme fitness (log ratio)
1,A27U C123A,-1.74
2,C49G U54C G63C C88G U106G,-5.67
3,U30A,-4.65
4,C56A G71U U81G A111C A119G G135A,-4.66
5,G47C U55G C72G U106A U129A G135C,-2.99
6,U9C G36U G63C U112C G128C,-1.66
7,C72G C99U,-3.45
8,C12G C62G,-1.6
9,C40A C89G C101A U130G,-5.66
10,A37U C49A C86U G117C,-4.27
11,C8U U54A,0.528
12,C56A U129C,-0.603
13,G60A C97G G120C,-4.18
14,C11G A27G A29U C94U,-2.53
15,G61A C80U,-1.03
16,C22U C89A,-4.83
17,C12G G51U,-2.93
18,C40U C56A C82G C97U C115U U132C,-4.39
19,A5C G10C A43C C124G,-1.41
20,A6C U9G G47C G63A A83U G120U,-1.35
21,C56G U109A,-4.28
22,C3U G93U,-1.95
23,A24G C56A G60U A83C,-2.27
